According to publication PMC8546545:

What was measured:
[1] = target: OdhI (Oxoglutarate dehydrogenase Inhibitor), FHA substrate of PknG (Corynebacterium glutamicum) (UniProt Q8NQJ3)
[2] = target: OdhI (Oxoglutarate dehydrogenase Inhibitor), FHA substrate of PknG (Corynebacterium glutamicum) (UniProt Q8NQJ3); remark: listed apart in the source

UniProt Q8NQJ3, sequence (Q8NQJ3 whole entry): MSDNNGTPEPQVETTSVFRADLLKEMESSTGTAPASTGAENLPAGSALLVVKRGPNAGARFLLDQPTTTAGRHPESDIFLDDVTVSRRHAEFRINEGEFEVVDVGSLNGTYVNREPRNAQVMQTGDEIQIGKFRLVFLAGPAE

Row | kinase activity ([γ-32P]ATP) against OdhI compared to the full-length enzyme (phosphorylation of the 17-mer peptide unaffected) [1] | kinase activity ([γ-32P]ATP) of CgPknG toward OdhI (25 μM) compared with the 17-mer peptide substrate lacking an FHA domain (330 μM) [2] | Substance
1 | 7 fold lower |  | CgPknG deletion mutant lacking residues 1 to 129 and 434 to 822 (domain or fragment)
2 |  | 45 fold | Ser/Thr protein kinase PknG from Corynebacterium glutamicum, full length (enzyme)
